Measurements as given in patent US10500249B2, “Compositions and methods for preventing or treating diseases, conditions, or processes characterized by aberrant fibroblast proliferation and extracellular matrix deposition” (MOERAE MATRIX, INC., priority 2014, dated 2019).

Legend:
Experiment in all cases: Kinase Profiling Assay
Type in all cases: biochemical
Details in all cases: 100 μM
BTK(R28H) (h) = BTK(R28H) (h) (Homo sapiens, UniProt Q06187, R28H)
Outline: (§1)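 Scintillation counting quantifies radiolabeled, positively charged substrate retained on a negatively charged filter after kinase reaction with labeled ATP; inhibitor peptide present.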

EphB3 (h) = target: T1, EphB3 (h) (Homo sapiens, UniProt P54753)
T1 sequence (P54753 34-998): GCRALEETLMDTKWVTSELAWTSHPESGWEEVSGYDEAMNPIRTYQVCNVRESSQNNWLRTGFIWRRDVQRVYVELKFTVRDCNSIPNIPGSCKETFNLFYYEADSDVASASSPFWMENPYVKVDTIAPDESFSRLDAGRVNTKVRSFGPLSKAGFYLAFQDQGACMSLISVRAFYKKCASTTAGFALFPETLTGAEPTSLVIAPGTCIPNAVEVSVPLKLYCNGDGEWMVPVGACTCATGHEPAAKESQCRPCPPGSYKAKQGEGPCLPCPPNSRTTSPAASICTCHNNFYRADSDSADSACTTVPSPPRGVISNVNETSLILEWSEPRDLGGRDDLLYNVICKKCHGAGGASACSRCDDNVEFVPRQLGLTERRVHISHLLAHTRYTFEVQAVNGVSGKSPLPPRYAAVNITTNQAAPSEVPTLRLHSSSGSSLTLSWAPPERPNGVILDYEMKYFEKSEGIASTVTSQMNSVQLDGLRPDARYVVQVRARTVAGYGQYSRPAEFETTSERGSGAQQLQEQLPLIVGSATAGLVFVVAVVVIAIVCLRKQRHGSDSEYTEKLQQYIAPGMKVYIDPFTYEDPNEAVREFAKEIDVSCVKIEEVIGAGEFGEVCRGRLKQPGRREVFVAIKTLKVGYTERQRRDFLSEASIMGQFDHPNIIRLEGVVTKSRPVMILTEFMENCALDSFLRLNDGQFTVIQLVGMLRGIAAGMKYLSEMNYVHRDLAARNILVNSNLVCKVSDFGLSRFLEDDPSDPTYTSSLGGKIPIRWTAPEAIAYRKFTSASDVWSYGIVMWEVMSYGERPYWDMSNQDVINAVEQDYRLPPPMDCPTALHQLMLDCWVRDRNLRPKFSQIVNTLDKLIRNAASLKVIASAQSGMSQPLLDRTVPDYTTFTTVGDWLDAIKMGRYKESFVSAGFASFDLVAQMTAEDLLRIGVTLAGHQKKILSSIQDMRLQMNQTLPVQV
Outline: as §1

ULK3 (h) = target: T2, ULK3 (h) (Homo sapiens, UniProt Q6PHR2)
T2 sequence (Q6PHR2 1-472): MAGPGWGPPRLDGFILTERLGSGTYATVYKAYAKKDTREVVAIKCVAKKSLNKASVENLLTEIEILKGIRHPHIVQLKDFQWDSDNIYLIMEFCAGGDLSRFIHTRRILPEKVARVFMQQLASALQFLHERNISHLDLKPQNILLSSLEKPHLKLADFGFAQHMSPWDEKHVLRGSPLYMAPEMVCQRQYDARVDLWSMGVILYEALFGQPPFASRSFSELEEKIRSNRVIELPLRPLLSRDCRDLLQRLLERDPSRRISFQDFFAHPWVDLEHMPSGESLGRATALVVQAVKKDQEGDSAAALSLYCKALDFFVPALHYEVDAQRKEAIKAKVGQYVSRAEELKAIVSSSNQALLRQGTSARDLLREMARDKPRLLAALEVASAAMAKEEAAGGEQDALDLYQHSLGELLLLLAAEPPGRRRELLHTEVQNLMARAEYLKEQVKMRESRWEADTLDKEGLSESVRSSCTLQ
Outline: as §1

PKCβI (h) = target: T3, PKCβI (h) (Homo sapiens, UniProt P05771)
T3 construct: purchased Millipore
Outline: as §1

PDK1 (h) = target: T4, PDK1 (h) (Homo sapiens, UniProt O15530)
T4 construct: purchased Millipore
T4 sequence (O15530 1-556): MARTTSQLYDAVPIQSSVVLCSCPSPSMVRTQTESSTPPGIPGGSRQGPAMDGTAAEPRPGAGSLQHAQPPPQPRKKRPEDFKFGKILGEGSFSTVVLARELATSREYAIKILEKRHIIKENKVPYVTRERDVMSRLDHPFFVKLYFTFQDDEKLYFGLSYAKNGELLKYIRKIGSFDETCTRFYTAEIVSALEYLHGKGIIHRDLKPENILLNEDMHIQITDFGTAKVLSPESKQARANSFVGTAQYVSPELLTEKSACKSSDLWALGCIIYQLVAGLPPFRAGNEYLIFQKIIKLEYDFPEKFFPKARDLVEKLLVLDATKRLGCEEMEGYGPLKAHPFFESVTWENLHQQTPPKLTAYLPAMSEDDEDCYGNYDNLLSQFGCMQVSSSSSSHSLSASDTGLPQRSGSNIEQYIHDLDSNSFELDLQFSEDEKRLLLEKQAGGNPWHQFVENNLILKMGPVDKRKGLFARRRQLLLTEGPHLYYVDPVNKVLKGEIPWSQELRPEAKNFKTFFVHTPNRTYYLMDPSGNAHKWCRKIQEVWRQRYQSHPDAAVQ
Outline: as §1

IRAK4 (h) = target: T5, IRAK4 (h) (Homo sapiens, UniProt Q9NWZ3)
T5 construct: purchased Millipore
T5 sequence (Q9NWZ3 1-460): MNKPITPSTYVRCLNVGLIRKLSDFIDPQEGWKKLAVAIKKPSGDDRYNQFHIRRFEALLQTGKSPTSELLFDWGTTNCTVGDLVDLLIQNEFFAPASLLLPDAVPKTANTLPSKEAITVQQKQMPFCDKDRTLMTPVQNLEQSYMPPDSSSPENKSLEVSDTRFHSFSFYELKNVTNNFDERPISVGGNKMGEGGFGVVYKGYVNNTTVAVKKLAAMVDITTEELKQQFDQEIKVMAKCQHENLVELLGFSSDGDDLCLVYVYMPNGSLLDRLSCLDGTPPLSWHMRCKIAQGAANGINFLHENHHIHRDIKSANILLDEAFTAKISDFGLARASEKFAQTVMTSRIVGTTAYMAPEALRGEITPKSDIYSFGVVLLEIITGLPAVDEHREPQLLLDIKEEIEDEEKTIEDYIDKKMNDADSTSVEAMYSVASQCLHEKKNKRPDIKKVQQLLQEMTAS
Outline: as §1

T3 sequence (P05771 whole entry): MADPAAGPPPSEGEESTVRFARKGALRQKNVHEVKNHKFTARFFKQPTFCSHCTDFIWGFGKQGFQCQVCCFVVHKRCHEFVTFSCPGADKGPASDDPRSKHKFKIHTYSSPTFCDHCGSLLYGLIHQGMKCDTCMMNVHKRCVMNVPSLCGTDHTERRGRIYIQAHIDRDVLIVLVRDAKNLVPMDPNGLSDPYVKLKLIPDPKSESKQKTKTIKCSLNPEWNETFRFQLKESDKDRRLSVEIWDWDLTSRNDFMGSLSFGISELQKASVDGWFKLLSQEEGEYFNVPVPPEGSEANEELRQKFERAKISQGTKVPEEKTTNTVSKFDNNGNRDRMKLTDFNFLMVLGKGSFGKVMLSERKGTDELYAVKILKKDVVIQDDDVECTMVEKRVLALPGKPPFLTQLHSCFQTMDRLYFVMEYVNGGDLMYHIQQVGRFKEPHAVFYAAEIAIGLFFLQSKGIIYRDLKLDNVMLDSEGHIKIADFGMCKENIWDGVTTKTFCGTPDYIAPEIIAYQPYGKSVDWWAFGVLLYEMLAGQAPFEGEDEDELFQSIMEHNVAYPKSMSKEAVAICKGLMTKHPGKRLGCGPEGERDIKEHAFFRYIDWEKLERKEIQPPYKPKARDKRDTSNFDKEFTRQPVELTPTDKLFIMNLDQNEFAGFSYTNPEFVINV
Sequence of BTK(R28H) (h) (Q06187 whole entry R28H): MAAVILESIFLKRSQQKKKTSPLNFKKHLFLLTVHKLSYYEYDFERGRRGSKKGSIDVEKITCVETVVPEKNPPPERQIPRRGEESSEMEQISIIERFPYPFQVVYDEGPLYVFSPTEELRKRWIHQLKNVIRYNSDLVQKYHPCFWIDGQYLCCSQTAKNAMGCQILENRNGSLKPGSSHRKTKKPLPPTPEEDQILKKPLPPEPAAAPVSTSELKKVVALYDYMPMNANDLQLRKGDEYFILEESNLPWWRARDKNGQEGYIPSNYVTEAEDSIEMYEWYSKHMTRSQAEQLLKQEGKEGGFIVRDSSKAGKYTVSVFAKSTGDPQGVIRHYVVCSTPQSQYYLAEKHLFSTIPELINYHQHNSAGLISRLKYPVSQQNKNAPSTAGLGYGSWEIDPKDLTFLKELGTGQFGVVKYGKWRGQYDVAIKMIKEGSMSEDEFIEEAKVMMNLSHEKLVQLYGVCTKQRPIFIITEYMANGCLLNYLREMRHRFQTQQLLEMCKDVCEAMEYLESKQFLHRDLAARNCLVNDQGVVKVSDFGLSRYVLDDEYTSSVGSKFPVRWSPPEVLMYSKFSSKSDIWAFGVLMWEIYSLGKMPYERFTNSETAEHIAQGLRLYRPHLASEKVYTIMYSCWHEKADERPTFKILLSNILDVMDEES

Row | Sequence | % activity (BTK(R28H) (h)) [%] | % activity (EphB3 (h)) [%] | % activity (ULK3 (h)) [%] | % activity (PKCβI (h)) [%] | % activity (PDK1 (h)) [%] | % activity (IRAK4 (h)) [%]
1 | FAKLAARLYRKALARQLGVAA [MMI-0300] | 74 | 62 | 167 | 78 | 135 | 59
2 | HRRIKAWLKKIKALARQLGVAA (Mammalian) [MMI-0500] | 10 | 79 | 177 | 1 | 178 | 3
3 | KAFAKLAARLYRKALARQLGVAA [MMI-0400] | 24 | 47 | 147 | 78 | 159 | 59
4 | YARAAARQARAKALNRQLGVA (Mammalian) [MMI-0200] |  | 128 | 164 | 98 | 143 | 110
